# Measured values taken from patent publication US20050054090A1 (Scripps Research, published 2005).
# T1: murine IA^d MHC class II heterodimer expressed on the surface of Drosophila S2 cells (murine, UniProt P04228 24-256; P01921 28-265)
# T1 construct: whole, on cells; Expressed without peptide on Drosophila S2 cells, alone or with accessory molecules; also called H2-A^d; recombinant MHC class II
# T1 sequence (MHC II alpha, looked up): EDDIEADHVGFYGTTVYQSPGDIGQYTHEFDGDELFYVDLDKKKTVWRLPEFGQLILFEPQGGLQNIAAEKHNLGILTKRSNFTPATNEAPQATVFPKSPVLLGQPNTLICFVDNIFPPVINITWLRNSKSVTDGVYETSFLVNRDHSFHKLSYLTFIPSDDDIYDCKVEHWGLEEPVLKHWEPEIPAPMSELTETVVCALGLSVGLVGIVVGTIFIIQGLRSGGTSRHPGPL
# T1 sequence (MHC II beta, looked up): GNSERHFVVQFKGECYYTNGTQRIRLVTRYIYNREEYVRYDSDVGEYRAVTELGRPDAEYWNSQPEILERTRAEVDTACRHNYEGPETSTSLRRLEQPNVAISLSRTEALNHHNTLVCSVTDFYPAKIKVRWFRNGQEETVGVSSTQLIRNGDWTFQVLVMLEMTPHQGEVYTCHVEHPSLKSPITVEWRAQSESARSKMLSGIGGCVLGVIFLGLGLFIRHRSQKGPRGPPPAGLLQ
# B1: ovalbumin323-339 (OVA) peptide (peptide)
# peptide: ISQAVHAAHAEINEAGR
# notes: Chemically synthesized by T-BOC chemistry and added to the cultures; also called ovalbumin peptide 323-339
# Biological target: T1, murine IA^d MHC class II heterodimer …
# Test: inferred by the filing from OVA-peptide-dose-dependent T cell proliferation with peptide-loaded Drosophila APC; no direct binding assay
# Procedure: Proliferation is assayed as described in Example 5. The proliferation is measured in counts per minute (cpm)×1000 as plotted on the Y-axis against increasing concentrations of OVA peptide in μM on the X-axis. […] Proliferative responses with recombinant MHC class II alone are shown in the line having closed circles. Those with MHC class II combined with either costimulatory molecules B7.1 or B7.2 are shown respectively with lines having open and closed squares.
# The effect of peptide presentation in the presence of MHC class II with and without accessory molecules, B7.1, B7.2 or B7.2 plus ICAM-1, was first assessed in a proliferation assay performed as described by Webb et al., Cell, 63:1249 (1990). Briefly, 5×10⁴ CD4⁺ T cells were cultured in microtiter wells with 5×10⁴ Drosophila cells in 300 μl of culture medium. Eighteen hours prior to harvesting, 100 μl of supernatant were removed for cytokine analysis and 1 μCi of ³H-thymidine was added to each well. At the times indicated (3, 4 or 5 days), the wells were individually harvested onto glass fiber filters and counted in a liquid scintillation counter.
binder,measurement,value
B1,binding result,binds
